This note sets out measurements from US20220153818A1 (UNIVERSITY COURT OF THE UNIVERSITY OF ABERDEEN, published 2022).

First the molecules themselves.
B1: AB121 (antibody, V domains shown)
VH: EVQLVESGGTLVQPGGSLRLSCAASGFTFSDYWMNWVRQAPGKGLEWVANIKQDGSEKYYVDSLRGRVTISRDNAQNSVFLQMHSLSVEDTAVYYCARDGYTFGPATTELDHWGRGTLVSVSS
VL: QLVLTQPPSVSVSPGQTASITCSGDELRNKYTSWYQQKSGQSPVLVIYQDNNRPSGIPERFSGSQSGDTATLTISGTQAVDEADYYCQAWVSQTLVFGGGTKLTVL
notes: also called 06-AB-121; anti-Hyr1 mAb AB121
B2: AB120 (antibody, V domains shown)
VH: EVQLVQSGGGLVQPGGSLGLSCAASGFIFTSYAMTWVRQAPGKGLEWVSVITGNVGTSYYADSVKGRFTISRDNSKKTVSLQMNSLRAEDTAIYYCVKTRYDFSSGYYFDDWGQGTLVSVSS
VL: DIVMTQSPSSVSASVGDKVTITCRASQGISRWLAWYQQKPGEAPELLIYAASSLQSGVPSRFSGSGSGTDFTLTISSLQPEDFATYYCQQANSFPITFGQGTRLQIK
notes: also called 06-AB-120; anti-Hyr1 mAb AB120
B3: AB123 (antibody, V domains shown)
VH: EVQLLESGGGVVQPGRSLRLSCAASGFTFSNYGMHWVRQAPGKGLEWVAVVWFDGSYKYYTDSVKGRFTISRDNSKSTLYLQMNSLRAEDTAVYYCVSPIMTSAFDIWGPGTMVSVSS
VL: QLVLTQPPSASGSPGQSVTISCTGTSSDVGGSNFVSWYQHHPGKAPKLMIYEVSQRPSGVPDRFSGSKSGNTASLTVSGLQADDEADYYCSSYAGSVVLFGGGTKLTVL
notes: also called 06-AB-123; anti-Hyr1 mAb AB123
B4: AB122 (antibody, V domains shown)
VH: EVQLVQSGGGLAQPGRSLRLSCAASGFGFDDFAMHWVRQPPGKGLEWVSGLTWNGGSIDYAGSVRGRFTISRDNAKNSLFLQMNSLRAEDTALYYCAKGLSGGTMAPFDIWGQGTMVSVSS
VL: QAGLTQPPSVSVAPGQTATIPCGGNNIGSKHVHWYQQKPGQAPVAVVYDDSDRPSGVPERFSGSNSGNTATLTISSVEAGDEADYYCQVWDRSSDHFWLFGGGTRLTVL
notes: also called 06-AB-122; anti-Hyr1 mAb AB122

T1 sequence (P02768 25-609 limits assumed): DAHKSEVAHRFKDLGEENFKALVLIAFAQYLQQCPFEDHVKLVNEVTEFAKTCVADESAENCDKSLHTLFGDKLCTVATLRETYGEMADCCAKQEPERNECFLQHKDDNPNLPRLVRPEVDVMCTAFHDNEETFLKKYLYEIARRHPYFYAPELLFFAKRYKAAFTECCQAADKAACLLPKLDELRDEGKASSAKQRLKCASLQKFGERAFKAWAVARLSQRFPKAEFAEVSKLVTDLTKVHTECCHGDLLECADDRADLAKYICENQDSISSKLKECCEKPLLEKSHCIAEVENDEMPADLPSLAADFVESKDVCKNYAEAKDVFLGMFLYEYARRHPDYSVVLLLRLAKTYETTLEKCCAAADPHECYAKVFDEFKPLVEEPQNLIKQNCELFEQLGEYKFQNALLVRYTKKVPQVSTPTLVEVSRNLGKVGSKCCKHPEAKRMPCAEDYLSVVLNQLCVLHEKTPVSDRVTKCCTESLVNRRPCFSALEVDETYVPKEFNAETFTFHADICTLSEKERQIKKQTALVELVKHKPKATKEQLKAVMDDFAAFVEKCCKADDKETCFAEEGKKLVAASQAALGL

The first test addresses T1, human serum albumin (human, UniProt P02768 25-609).
T1 construct: also called HSA
The experiment in a line: ELISA. On the technique in general: ELISA stands for enzyme-linked immunosorbent assay.
B1: the binding result is given as “no binding”.

For the molecule B2, the binding result was “no binding”.

In the case of B3, the binding result is reported as “no binding”.

As for B4, the binding result is reported as “no binding”.

A further test concerns the target T2, Recombinant Hyr1 N-terminus fragment (amino acids 63-350) with N-terminal 6xHis tag (Candida albicans, UniProt Q5AL03 63-350).
T2 sequence: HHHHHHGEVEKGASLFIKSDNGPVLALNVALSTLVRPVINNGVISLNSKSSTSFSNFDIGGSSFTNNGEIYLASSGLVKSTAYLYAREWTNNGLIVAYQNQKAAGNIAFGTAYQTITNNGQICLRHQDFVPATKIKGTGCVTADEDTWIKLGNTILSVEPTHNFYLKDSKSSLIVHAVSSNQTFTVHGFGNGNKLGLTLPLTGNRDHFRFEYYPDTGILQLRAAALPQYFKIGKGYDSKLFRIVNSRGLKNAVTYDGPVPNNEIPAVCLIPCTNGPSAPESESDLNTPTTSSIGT
The test is described as follows: ELISA, plate coated with recombinant Hyr1 N-terminus, titrated IgG1.
On to B1, for which the EC50 stood at 0.0765 µg/mL.

As to B2, the EC50 turned out to be 0.104 µg/mL.

For the molecule B3, the EC50 came out at 0.0533 µg/mL.

Regarding B4, the EC50 was 0.0496 µg/mL.

The term EC50 denotes the concentration that produces a half-maximal response.
